Assay [1] deals with T1, native PRLR expressing T47D cells (Homo sapiens, UniProt P16471).
T1 construct: a native PRLR expressing cell line (T47D); endogenous in cells; host or cells: T47D
T1 sequence (P16471 25-622): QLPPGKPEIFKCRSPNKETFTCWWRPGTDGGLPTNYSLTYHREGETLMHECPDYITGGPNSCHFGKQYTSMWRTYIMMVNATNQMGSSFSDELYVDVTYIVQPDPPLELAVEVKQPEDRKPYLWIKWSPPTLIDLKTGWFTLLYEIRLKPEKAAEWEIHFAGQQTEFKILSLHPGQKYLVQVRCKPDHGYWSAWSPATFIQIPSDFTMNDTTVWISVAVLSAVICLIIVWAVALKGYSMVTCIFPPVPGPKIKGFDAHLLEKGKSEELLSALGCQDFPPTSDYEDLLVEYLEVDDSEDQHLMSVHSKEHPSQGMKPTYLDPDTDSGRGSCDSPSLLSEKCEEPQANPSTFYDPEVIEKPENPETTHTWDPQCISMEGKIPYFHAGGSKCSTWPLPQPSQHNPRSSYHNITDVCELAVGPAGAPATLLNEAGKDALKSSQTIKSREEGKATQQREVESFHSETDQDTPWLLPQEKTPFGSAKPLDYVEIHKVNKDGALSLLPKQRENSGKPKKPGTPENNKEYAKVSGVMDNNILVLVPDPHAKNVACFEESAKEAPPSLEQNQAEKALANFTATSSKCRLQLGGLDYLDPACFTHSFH
Kind of assay: FACS cell surface binding. The procedure, abridged: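 Binding expressed as mean fluorescence fold change above isotype background, measured by FACS after 30 min on ice with 10 μg/ml antibody and PE-conjugated anti-human detection. T47D, which natively expresses PRLR, tested with engineered HEK293/hPRLR and non-expressing HEK293 cells.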

The target of assay [2] is T2, mouse PRLR on HEK293/mPRLR cells (Mus musculus, UniProt Q08501).
T2 construct: HA; expressed in transfected cells; host or cells: HEK293
T2 sequence (Q08501 20-608): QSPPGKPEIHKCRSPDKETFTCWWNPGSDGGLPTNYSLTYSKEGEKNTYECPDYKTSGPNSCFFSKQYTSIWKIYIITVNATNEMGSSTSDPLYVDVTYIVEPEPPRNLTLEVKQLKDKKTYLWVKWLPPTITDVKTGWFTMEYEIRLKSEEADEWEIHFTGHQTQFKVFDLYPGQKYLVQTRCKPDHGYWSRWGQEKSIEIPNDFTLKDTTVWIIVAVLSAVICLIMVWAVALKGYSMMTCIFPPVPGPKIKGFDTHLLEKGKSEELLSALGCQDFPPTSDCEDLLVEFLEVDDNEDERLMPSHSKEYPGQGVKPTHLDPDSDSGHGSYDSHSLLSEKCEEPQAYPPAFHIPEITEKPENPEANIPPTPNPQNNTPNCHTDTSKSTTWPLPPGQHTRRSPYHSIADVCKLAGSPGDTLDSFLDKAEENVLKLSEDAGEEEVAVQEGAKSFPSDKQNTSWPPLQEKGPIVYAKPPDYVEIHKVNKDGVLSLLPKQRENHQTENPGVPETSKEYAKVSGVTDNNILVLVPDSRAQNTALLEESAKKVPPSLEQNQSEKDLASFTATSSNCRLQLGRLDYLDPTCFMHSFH
Briefly: FACS cell surface binding. The procedure, abridged:
(§1)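 Flow cytometry: 1×10^5 cells/sample; primary Ab 10 μg/ml, 30 min on ice; 2 washes; PE anti-human 2° 10 μg/ml, 30 min on ice. Cells were HEK293 stably expressing HA-tagged PRLR of the given species, or untransfected HEK293. Readout was MFI fold over isotype.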

The target of assay [3] is T3, human PRLR on HEK293/hPRLR cells (Homo sapiens, UniProt P16471).
T3 construct: HA; expressed in transfected cells; host or cells: HEK293
T3 sequence (P16471 25-622): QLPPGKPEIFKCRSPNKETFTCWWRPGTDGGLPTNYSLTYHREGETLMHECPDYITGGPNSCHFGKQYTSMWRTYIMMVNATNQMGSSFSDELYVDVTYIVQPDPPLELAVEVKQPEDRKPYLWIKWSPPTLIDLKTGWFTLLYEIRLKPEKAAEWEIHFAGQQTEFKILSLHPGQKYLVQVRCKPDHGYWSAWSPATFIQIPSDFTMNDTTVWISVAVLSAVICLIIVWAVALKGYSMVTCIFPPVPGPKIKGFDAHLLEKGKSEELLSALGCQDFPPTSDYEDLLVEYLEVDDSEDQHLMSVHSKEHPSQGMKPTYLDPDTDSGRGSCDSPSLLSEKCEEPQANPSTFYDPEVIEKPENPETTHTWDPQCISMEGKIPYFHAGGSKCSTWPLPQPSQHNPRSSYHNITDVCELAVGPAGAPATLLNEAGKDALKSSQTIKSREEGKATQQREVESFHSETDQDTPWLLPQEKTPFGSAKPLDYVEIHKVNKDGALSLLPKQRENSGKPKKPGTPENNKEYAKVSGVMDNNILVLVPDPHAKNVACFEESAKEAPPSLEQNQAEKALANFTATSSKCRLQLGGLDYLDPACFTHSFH
Briefly: FACS cell surface binding. The procedure, abridged: as §1

Assay [4] deals with T4, monkey PRLR on HEK293/mfPRLR cells (Macaca fascicularis, UniProt A0A2K5WXK1).
T4 construct: HA; expressed in transfected cells; host or cells: HEK293
T4 sequence (A0A2K5WXK1 25-619): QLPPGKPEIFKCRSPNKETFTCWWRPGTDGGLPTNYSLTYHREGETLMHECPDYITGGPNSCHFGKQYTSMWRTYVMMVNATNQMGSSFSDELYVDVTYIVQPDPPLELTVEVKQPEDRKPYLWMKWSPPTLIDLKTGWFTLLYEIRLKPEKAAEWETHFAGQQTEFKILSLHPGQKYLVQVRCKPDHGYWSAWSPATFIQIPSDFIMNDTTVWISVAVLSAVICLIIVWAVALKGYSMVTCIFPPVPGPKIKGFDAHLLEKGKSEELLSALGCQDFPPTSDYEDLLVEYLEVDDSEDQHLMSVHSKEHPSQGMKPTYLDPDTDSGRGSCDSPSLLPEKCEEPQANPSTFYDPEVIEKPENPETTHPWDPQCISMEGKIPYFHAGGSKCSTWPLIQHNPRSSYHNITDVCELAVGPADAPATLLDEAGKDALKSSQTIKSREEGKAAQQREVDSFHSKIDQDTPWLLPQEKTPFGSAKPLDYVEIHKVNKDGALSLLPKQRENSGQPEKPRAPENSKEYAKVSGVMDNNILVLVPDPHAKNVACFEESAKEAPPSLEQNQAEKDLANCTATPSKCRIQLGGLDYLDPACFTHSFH
Kind of assay: FACS cell surface binding. The procedure, abridged:
as §1

Assay [5] concerns Macaca fascicularis PRLR (mfPRLR.mmh; SEQ ID NO:403). Kind of assay: Surface plasmon resonance (Biacore T200), antibody-capture format. The class given is binding. The settings on record: analyte mfPRLR.mmh. The procedure, abridged:
(§2)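 Antibodies (human IgG1 Fc) captured on an anti-human Fc sensor surface; soluble monomeric (.mmh) or dimeric (.mFc) PRLR injected as analyte. ka and kd obtained by fitting to a 1:1 binding model.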

In assay [6] the target is T5, dimeric human PRLR (hPRLR.mFc; SEQ ID NO:402) (Homo sapiens, UniProt P16471).
T5 construct: dimeric (hPRLR.mFc)
Described as above. The class given is binding. To be noted: analyte hPRLR.mFc. The essentials:
as §2

Assay [7] has as its target T6, monomeric human PRLR (hPRLR.mmh; SEQ ID NO:401) (Homo sapiens, UniProt P16471).
T6 construct: soluble monomeric (hPRLR.mmh); mmh (myc-myc-hexahistidine) (C)
The description is as above. The class given is binding. To be noted: analyte hPRLR.mmh. The essentials:
as §2

Another assay deals with HEK293 parental cells. Briefly: FACS cell surface binding. Also on record: species or system human. The procedure, abridged: as §1

T5 sequence (P16471 with tags, fused parts or gaps): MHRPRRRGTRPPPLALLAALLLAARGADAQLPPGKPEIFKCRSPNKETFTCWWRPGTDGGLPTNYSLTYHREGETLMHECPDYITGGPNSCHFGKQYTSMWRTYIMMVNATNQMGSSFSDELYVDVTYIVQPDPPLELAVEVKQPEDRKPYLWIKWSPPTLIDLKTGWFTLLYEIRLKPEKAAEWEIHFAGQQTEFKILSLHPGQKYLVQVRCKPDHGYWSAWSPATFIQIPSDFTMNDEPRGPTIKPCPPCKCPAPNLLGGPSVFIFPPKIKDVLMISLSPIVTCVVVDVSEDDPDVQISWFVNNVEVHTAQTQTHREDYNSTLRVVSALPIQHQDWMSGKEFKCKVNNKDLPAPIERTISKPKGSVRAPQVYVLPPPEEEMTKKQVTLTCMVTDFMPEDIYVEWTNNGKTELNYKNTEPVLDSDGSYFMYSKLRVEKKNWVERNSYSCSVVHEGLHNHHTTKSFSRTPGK
T6 sequence (P16471 with tags, fused parts or gaps): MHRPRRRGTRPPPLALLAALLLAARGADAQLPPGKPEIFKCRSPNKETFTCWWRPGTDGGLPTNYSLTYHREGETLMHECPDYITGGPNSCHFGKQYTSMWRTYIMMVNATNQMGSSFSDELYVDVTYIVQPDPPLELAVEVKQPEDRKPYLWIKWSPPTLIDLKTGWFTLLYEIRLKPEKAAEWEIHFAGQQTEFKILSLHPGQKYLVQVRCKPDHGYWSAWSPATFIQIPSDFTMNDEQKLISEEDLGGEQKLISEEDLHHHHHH
Chain of Macaca fascicularis PRLR (mfPRLR.mmh; SEQ ID NO:403) (as listed by the source): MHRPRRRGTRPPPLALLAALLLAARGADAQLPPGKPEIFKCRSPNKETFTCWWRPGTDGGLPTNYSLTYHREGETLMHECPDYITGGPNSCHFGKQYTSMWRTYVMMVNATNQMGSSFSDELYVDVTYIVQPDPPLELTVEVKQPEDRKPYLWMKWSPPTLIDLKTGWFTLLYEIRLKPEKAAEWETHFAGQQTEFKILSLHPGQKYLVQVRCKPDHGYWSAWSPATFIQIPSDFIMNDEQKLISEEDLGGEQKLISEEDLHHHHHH

B1: H1H6803P: fully human anti-PRLR antibody, human IgG1 Fc; HCVR/LCVR SEQ ID NOs 226/234 (antibody, V domains shown)
VH: EVQLVESGGGVVRPGGSLRLSCAASGFKFDDYGMTWVRHVPGKGLEWVSGINWNGGRTGYTDSVKGRFTISRDNAKNSLYLQMNSLRAEDTALYHCAGARRDAFDIWGQGTMVTVSS
VL: DIQMTQSPSSLSASIGDRVTITCRASQNIIKYLNWYQQNAGKAPKLLIYTASSLQSGVPSRFSGSGSGTDFTLTISSLQPEDFATYYCQQSSSSPYTFGQGTKLEIK
For the molecule B1, the “FACS Cell Binding” value in assay [1] was 39 Fold Above Background; in assay [2], 1 Fold Above Background; in assay [3], 39 Fold Above Background; in assay [4], 28 Fold Above Background; in the assay on HEK293 parental cells, 1 Fold Above Background. The ka in assay [5] (25° C.) is 62100 M/s; in assay [5] (37° C.), 87300 M/s; in assay [6] (25° C.), 104000 M/s; in assay [6] (37° C.), 134000 M/s; in assay [7] (25° C.), 82400 M/s; in assay [7] (37° C.) it was 129000 M/s. The kd stood at 0.000209 s⁻¹ in assay [5] (25° C.); 0.000636 s⁻¹ in assay [5] (37° C.); 6.29e-05 s⁻¹ in assay [6] (25° C.); 6.2e-05 s⁻¹ in assay [6] (37° C.); 0.000137 s⁻¹ in assay [7] (25° C.); 0.000364 s⁻¹ in assay [7] (37° C.).

B2: H1H6804P: fully human anti-PRLR antibody, human IgG1 Fc; HCVR/LCVR SEQ ID NOs 242/250 (antibody, V domains shown)
VH: QVTLKESGPVLVKPTQTLSLTCTVSGFSLSDAGMGVSWIRQPPGKALEWLAHIFSNDGKSYSTSLKSRLTISKDTSKRQVVLTMTNMDPVDTATYYCARIRTGTYSLYLDYWGQGTLVTVSS
VL: DIQMTQSPSSLSASVGDRVTITCRASQSINSYLNWYQQKPGKAPKLLLYFASSLQSGVPSRFSGSGSGTDFTLTISSLQPEDFASYYCQESYSTPWTFGQGTKVEIK
For B2, the “FACS Cell Binding” value in assay [1] is recorded as 34 Fold Above Background; in assay [2], 1 Fold Above Background; in assay [3], 1 Fold Above Background; in assay [4], 29 Fold Above Background; in the assay with HEK293 parental cells, 1 Fold Above Background. In addition, the ka in assay [5] (25° C.) is 331000 M/s; in assay [5] (37° C.) it was 455000 M/s; in assay [6] (25° C.), 451000 M/s; in assay [6] (37° C.), 554000 M/s; in assay [7] (25° C.), 453000 M/s; in assay [7] (37° C.), 607000 M/s. The kd worked out at 0.000657 s⁻¹ in assay [5] (25° C.); 0.00426 s⁻¹ in assay [5] (37° C.); 8.69e-05 s⁻¹ in assay [6] (25° C.); 0.000205 s⁻¹ in assay [6] (37° C.); 0.000634 s⁻¹ in assay [7] (25° C.); 0.00385 s⁻¹ in assay [7] (37° C.).

Values taken from patent US10925971B2, “Methods of treating PRLR positive breast cancer” (Regeneron Pharmaceuticals, Inc., priority 2016, dated 2021).
